Target: T1, GST-USP11 (UniProt P51784 1-963)
T1 construct: USP11; pGEX4T1-GST-USP11; made by subcloning; the bought USP11 plasmid is Addgene 22566; also called recombinant USP11; source: E. coli Rosetta (DE3), purified (Glutathione Sepharose 4B)
Assay: pull-down; MBP pull-down: 10 μg MBP-SPRYD3 (or equimolar MBP) mixed with 10 μg GST-tagged protein in NP-40 buffer, 4 °C 1 h; Amylose resin 2 h at 4 °C; five washes; Western blot
Conditions: both partners purified

T1 sequence (P51784 whole entry): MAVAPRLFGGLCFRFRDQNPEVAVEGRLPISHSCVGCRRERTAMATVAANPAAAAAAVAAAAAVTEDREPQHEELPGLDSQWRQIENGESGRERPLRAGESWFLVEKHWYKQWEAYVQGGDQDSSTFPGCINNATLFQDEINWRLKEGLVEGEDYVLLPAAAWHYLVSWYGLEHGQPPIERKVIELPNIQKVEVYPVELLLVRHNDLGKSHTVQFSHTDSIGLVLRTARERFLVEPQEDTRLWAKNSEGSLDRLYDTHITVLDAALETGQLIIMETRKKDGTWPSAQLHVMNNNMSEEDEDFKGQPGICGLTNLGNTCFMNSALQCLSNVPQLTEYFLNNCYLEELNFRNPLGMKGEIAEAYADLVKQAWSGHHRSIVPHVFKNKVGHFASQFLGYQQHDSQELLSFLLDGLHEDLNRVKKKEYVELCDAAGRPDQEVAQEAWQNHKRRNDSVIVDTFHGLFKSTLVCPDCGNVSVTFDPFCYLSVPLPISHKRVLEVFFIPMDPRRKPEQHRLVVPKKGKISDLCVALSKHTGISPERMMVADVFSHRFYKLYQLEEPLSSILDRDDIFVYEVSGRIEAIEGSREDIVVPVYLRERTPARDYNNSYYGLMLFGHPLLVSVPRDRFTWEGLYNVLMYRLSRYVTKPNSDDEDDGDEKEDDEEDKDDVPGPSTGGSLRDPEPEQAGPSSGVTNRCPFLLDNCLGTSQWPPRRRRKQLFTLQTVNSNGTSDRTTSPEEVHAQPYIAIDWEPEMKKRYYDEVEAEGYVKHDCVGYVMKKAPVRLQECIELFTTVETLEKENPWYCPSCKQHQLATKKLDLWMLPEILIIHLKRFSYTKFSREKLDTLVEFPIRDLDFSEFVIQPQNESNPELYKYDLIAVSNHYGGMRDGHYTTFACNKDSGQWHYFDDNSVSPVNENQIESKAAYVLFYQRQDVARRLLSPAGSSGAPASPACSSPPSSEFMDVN

binding result: binds
B1: MBP-SPRYD3 (natural protein, UniProt Q8NCJ5 1-442, looked up)
chain: MRRTRRPRFVLMNKMDDLNLHYRFLNWRRRIREIREVRAFRYQERFKHILVDGDTLSYHGNSGEVGCYVASRPLTKDSNYFEVSIVDSGVRGTIAVGLVPQYYSLDHQPGWLPDSVAYHADDGKLYNGRAKGRQFGSKCNSGDRIGCGIEPVSFDVQTAQIFFTKNGKRVGSTIMPMSPDGLFPAVGMHSLGEEVRLHLNAELGREDDSVMMVDSYEDEWGRLHDVRVCGTLLEYLGKGKSIVDVGLAQARHPLSTRSHYFEVEIVDPGEKCYIALGLARKDYPKNRHPGWSRGSVAYHADDGKIFHGSGVGDPFGPRCYKGDIMGCGIMFPRDYILDSEGDSDDSCDTVILSPTARAVRNVRNVMYLHQEGEEEEEEEEEEEDGEEIEPEHEGRKVVVFFTRNGKIIGKKDAVVPSGGFFPTIGMLSCGEKVKVDLHPLSG
notes: SPRYD3; pMal-c2-MBP-SPRYD3; also called recombinant SPRYD3; source: E. coli Rosetta (DE3), purified (Amylose resin)

From PMC12664034, “The E3 ubiquitin ligase SPRYD3-MYCBP2(PAM) regulates mitotic cell fate and ubiquitination of USP11 to control spindle assembly” (The Journal of Biological Chemistry, 2025)
